We go through 2 molecules from paper PMC11961710, “Design and implementation of aerobic and ambient CO2-reduction as an entry-point for enhanced carbon fixation” (Nature Communications, 2025).

The target in series [1] is T1, BKACE15 (Paracoccus denitrificans, UniProt A1B802).
T1 construct: gene Pden_3578
T1 sequence (A1B802 1-310): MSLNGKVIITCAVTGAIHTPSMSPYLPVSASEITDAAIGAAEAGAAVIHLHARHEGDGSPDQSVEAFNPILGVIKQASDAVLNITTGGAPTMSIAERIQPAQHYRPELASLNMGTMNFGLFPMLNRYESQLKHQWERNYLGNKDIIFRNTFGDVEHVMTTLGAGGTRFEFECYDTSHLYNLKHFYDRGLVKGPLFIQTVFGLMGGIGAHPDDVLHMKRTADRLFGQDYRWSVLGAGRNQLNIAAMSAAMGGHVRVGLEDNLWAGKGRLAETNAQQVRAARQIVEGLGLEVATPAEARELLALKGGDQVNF
The series is described as follows: crystal structure at […] Å (with acetyl-CoA); product inhibition measured by LC-MS with purified enzyme. The series is classed as biochemical.

Substrate in series [2]: CC(=O)SCCNC(=O)CCNC(=O)[C@H](O)C(C)(C)COP(=O)(O)OP(=O)(O)OC[C@H]1O[C@@H](n2cnc3c(N)ncnc32)[C@H](O)[C@@H]1OP(=O)(O)O
In words: purified protein. The conditions noted are these: Zn2+ active site entry channel, fully occupied upon acetyl-CoA binding.

Substrate in series [3]: O=CCC(=O)O
In words: purified protein. The series is classed as biochemical, Paracoccus denitrificans. The conditions noted are these: Zn2+ MSA must enter the active site first, before acetyl-CoA can bind.

A word on the IC50: it is the midpoint of a concentration-inhibition curve. A lower IC50 goes with higher potency. As a reminder, the Km is the concentration of substrate that gives half-maximal velocity.

In series [1], `CC(=O)CC(=O)O` [AAE, acetoacetate] displayed an IC50 of 1450 ± 160 µM.

B1: BKACE15 (Paracoccus denitrificans PD1222) (protein)
chain: MSLNGKVIITCAVTGAIHTPSMSPYLPVSASEITDAAIGAAEAGAAVIHLHARHEGDGSPDQSVEAFNPILGVIKQASDAVLNITTGGAPTMSIAERIQPAQHYRPELASLNMGTMNFGLFPMLNRYESQLKHQWERNYLGNKDIIFRNTFGDVEHVMTTLGAGGTRFEFECYDTSHLYNLKHFYDRGLVKGPLFIQTVFGLMGGIGAHPDDVLHMKRTADRLFGQDYRWSVLGAGRNQLNIAAMSAAMGGHVRVGLEDNLWAGKGRLAETNAQQVRAARQIVEGLGLEVATPAEARELLALKGGDQVNF
Turning to B1, the Km in series [2] turned out to be 110 ± 10 µM; in series [3] it was 830 ± 90 µM.
